B1: Mitotic spindle assembly checkpoint protein MAD1 (Homo sapiens), Q9Y6D9 (parent)
chain: MEDLGENTMVLSTLRSLNNFISQRVEGGSGLDISTSAPGSLQMQYQQSMQLEERAEQIRSKSHLIQVEREKMQMELSHKRARVELERAASTSARNYEREVDRNQELLTRIRQLQEREAGAEEKMQEQLERNRQCQQNLDAASKRLREKEDSLAQAGETINALKGRISELQWSVMDQEMRVKRLESEKQELQEQLDLQHKKCQEANQKIQELQASQEARADHEQQIKDLEQKLSLQEQDAAIVKNMKSELVRLPRLERELKQLREESAHLREMRETNGLLQEELEGLQRKLGRQEKMQETLVGLELENERLLAKLQSWERLDQTMGLSIRTPEDLSRFVVELQQRELALKDKNSAVTSSARGLEKARQQLQEELRQVSGQLLEERKKRETHEALARRLQKRVLLLTKERDGMRAILGSYDSELTPAEYSPQLTRRMREAEDMVQKVHSHSAEMEAQLSQALEELGGQKQRADMLEMELKMLKSQSSSAEQSFLFSREEADTLRLKVEELEGERSRLEEEKRMLEAQLERRALQGDYDQSRTKVLHMSLNPTSVARQRLREDHSQLQAECERLRGLLRAMERGGTVPADLEAAAASLPSSKEVAELKKQVESAELKNQRLKEVFQTKIQEFRKACYTLTGYQIDITTENQYRLTSLYAEHPGDCLIFKATSPSGSKMQLLETEFSHTVGELIEVHLRRQDSIPAFLSSLTLELFSRQTVA

Variants of: B1
Conditions: with md2l1_human MAD2L1, Q13257
md2l1_human MAD2L1, Q13257, sequence (Q13257 whole entry): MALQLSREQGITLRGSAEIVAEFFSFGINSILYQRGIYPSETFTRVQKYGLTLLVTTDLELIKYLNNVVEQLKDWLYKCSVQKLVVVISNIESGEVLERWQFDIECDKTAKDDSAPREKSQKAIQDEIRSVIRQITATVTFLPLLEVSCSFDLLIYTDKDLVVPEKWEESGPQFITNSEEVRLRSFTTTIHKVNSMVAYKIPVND

| Variant | effect of a mutation on the interaction |
| --- | --- |
| K541A;V542A;L543A;H544A;M545A | disrupting interaction strength |
